These are literature values, as cited in US20070014786A1, “Methods for treating taxol-induced gut disorder” (RINAT NEUROSCIENCE CORP., priority 2003, published 2007).

For the series, the target named is T1, low affinity receptor (LNGFR), p75NTR or p75 (Homo sapiens, UniProt P08138).
T1 sequence (P08138 29-427): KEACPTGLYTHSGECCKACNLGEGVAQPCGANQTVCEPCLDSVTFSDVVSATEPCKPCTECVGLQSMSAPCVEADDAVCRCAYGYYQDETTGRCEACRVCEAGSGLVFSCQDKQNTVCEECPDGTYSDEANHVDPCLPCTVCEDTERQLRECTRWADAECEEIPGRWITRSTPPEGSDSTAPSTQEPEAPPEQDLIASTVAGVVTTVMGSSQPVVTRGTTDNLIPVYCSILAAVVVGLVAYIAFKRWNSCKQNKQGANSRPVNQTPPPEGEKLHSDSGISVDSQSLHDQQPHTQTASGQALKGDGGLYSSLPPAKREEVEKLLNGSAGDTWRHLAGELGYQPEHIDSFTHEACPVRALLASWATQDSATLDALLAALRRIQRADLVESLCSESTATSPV
The settings on record: according to current knowledge (background).

B1: neurotrophin-4/5 (protein, UniProt P34130 81-210, looked up)
Neurotrophin-4: GVSETAPASRRGELAVCDAVSGWVTDRRTAVDLRGREVEVLGEVPAAGGSPLRQYFFETRCKADNAEEGGPGAGGGGCRGVDRRHWVSECKAKQSYVRALTADAQGRVGWRWIRIDTACVCTLLSRTGRA
notes: neurotrophin family member
On to B1, for which the Kd was 2 nM.

B2: brain-derived neurotrophic factor (protein, UniProt P23560 19-247, looked up)
Neurotrophic factor BDNF …: APMKEANIRGQGGLAYPGVRTHGTLESVNGPKAGSRGLTSLADTFEHVIEELLDEDQKVRPNEENNKDADLYTSRVMLSSQVPLEPPLLFLLEEYKNYLDAANMSMRVRRHSDPARRGELSVCDSISEWVTAADKKTAVDMSGGTVTVLEKVPVSKGQLKQYFYETKCNPMGYTKEGCRGIDKRHWNSQCRTTQSYVRALTMDSKKRIGWRFIRIDTSCVCTLTIKRGR
notes: neurotrophin family member
Turning to B2, the Kd is 2 nM.
